Reference: patent US20230331846A1 (INHIBRX, published 2023)

T1: canine PD-1 (canine)
T1 construct: Expressed full length on transiently transfected 293FS cells; also called full length canine PD-1
T1 chain: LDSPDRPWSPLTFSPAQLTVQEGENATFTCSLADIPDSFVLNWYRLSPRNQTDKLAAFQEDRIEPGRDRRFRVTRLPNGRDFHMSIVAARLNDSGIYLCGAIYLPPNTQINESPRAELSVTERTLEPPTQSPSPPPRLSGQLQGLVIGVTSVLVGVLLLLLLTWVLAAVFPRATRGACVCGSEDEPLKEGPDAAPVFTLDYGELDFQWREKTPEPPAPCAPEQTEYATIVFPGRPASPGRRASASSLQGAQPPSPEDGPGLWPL


Assays:
canine CD64 (canine) = canine CD64 (canine) (UniProt Q7YQJ5); experiment: flow cytometry, sdAb titrated on 293FS cells transfected with full length canine CD64, anti-canine Fc 647 secondary
canine PD-1 [1] = molecular target: T1, canine PD-1; experiment: flow cytometry blocking assay: sdAb titrated against 3 nM canine PD-L1-hFc (the blocked ligand) on 293FS cells expressing canine PD-1
Experimental: (§1) Binding of canine PD-1 to PD-L1 in the presence of the sdAbs described in Example 1 was determined as follows. Each sdAb was incubated for 1 hour at room temperature in a PBS buffer, with 3 or 4 nM canine PD-L1-hFc fusion (Sino Biological) and untransfected 293FS cells or transfected 293FS cells expressing full length canine PD-1 (SEQ ID NO: 1). A fluorescent anti-Fc specific secondary antibody was used to detect […] by flow cytometry using an Intellicyte iQue analyzer. Mean fluorescence intensity was plotted for each concentration of sdAb tested.

canine PD-1 [2] = molecular target: T1, canine PD-1; experiment: cell-based or functional assay
canine PD-1 [3] = molecular target: T1, canine PD-1; experiment: flow cytometry on 293FS cells transiently expressing full length canine PD-1
Experimental: (§2) Binding of the sdAbs to canine PD-1 was determined as follows. Transiently transfected 293FS cells that express full length canine PD-1 and untransfected 293FS cells were plated at 50,000 cells/well in separate wells. Antibodies were titrated serially diluted 1:3 starting at 400 nM, and detected with anti-canine Fc 647 secondary antibody. Flow cytometric analysis was performed on an Intellicyte iQue analyzer and fluorescence was plotted as median fluorescence intensity.

canine PD-1 [4] = molecular target: T1, canine PD-1; experiment: flow cytometry blocking assay: sdAb titrated against 4 nM canine PD-L1-hFc (the blocked ligand) on 293FS cells expressing canine PD-1
Experimental: as §1

canine PD-1 [5] = molecular target: T1, canine PD-1; experiment: flow cytometry, sdAb titrated on 293FS cells expressing canine PD-1 (title: canPD1 binding), anti-canine Fc 647 secondary
Experimental: as §2

canine CD64 (canine), sequence (Q7YQJ5 entry or part of it): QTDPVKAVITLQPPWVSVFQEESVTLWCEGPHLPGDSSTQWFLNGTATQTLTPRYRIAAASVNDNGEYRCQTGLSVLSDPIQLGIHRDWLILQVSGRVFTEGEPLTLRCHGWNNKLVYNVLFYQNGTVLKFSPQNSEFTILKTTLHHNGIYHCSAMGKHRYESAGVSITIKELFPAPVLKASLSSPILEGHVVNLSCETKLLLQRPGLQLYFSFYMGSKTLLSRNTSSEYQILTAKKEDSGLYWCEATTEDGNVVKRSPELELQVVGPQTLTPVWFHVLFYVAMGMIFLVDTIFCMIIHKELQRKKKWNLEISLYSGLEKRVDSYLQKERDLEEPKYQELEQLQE

Binder	EC50 (read off the curve) (canine CD64 (canine)) [nM]	IC50 (read off the curve) (canine PD-1 [1]) [nM]	EC50 (nM), CD4 T cells (canine PBMCs, background corrected mean fluorescence intensity) (canine PD-1 [2]) [nM]	EC50 (nM), CD8 T cells (canine PBMCs, background corrected mean fluorescence intensity) (canine PD-1 [2]) [nM]	Kd (canine PD-1 [3]) [nM]	IC50 (read off the curve) (canine PD-1 [4]) [nM]	EC50 (read off the curve) (canine PD-1 [5]) [nM]
czPD1-14v2-Fc xEML-DANA (Fc fusion, Dimer formation is stated only in embodiment language) EVQLVESGGGEVKPGGSLRLSCVASGRTVSIYAMGWFRQAPGKEREFVAGIGWNGGTTYYADAVKGRFTISRDNAKNTVYLQMSSLRAEDTAVYYCAAQESAAGTLGDYWGQGTQVTVKPGGGGENGRVPRPPDCPKCPAPGGPSVFIFPPKPKDTLLIARTPEVTCVVVALDPEDPEVQISWFVDGKQMQTAKTQPREEQFAGTYRVVSVLPIGHQDWLKGKQFTCKVNNKALPSPIERTISKARGQAHQPSVYVLPPSREELSKNTVSLTCLIKDFFPPDIDVEWQSNGQQEPESKYRTTPPQLDEDGSYFLYSKLSVDKSRWQRGDTFICAVMHEALHNHYTQKSLSHSPGK	–	–	9.15	27.2	6.65	~6	–
PD1-13-Fc xEML-DANA (Fc fusion, Dimer formation is stated only in embodiment language) QVTLKESGGGLVQAGGSLRLSCAASGRTEIIYAMGWFRQAPGKEREFVAGIGWSGGTTYYADSVEGRFTISRDSAKNTVYLQMRSLKPEDTAVYYCAAQDSVAGTLGDYWGQGTQVTVKPGGGGENGRVPRPPDCPKCPAPGGPSVFIFPPKPKDTLLIARTPEVTCVVVALDPEDPEVQISWFVDGKQMQTAKTQPREEQFAGTYRVVSVLPIGHQDWLKGKQFTCKVNNKALPSPIERTISKARGQAHQPSVYVLPPSREELSKNTVSLTCLIKDFFPPDIDVEWQSNGQQEPESKYRTTPPQLDEDGSYFLYSKLSVDKSRWQRGDTFICAVMHEALHNHYTQKSLSHSPGK	–	~2	–	–	< 10	–	~2
PD1-5-Fc xEML-DANA (Fc fusion) QVTLRESGGGLVQPGGSLRLSCAASGLTFGLYAMTWFRQAPGKDREGISCISSSDGSTIYADSVKGRFTASRDNAKDTMYLQMNNLNPEDTAVYYCATDYETRCDYGLRLRDRTAYWGPGTQVTVKPENGRVPRPPDCPKCPAPGGPSVFIFPPKPKDTLLIARTPEVTCVVVALDPEDPEVQISWFVDGKQMQTAKTQPREEQFAGTYRVVSVLPIGHQDWLKGKQFTCKVNNKALPSPIERTISKARGQAHQPSVYVLPPSREELSKNTVSLTCLIKDFFPPDIDVEWQSNGQQEPESKYRTTPPQLDEDGSYFLYSKLSVDKSRWQRGDTFICAVMHEALHNHYTQKSLSHSPGK	–	~2	–	–	< 10	–	~2
PD1-8-Fc xEML-DANA (Fc fusion) QVQLQQSGGGLVQAGGSLRVSCAASGRTFSSYGMGWFRQAPGKEREFVAAISWSGGTQYYADSAKGRFTISRDNAKNTVYLQMNSLKPEDTAVYYCADYTDYVVYRPQEIGYWGQGTQVTVKPENGRVPRPPDCPKCPAPGGPSVFIFPPKPKDTLLIARTPEVTCVVVALDPEDPEVQISWFVDGKQMQTAKTQPREEQFAGTYRVVSVLPIGHQDWLKGKQFTCKVNNKALPSPIERTISKARGQAHQPSVYVLPPSREELSKNTVSLTCLIKDFFPPDIDVEWQSNGQQEPESKYRTTPPQLDEDGSYFLYSKLSVDKSRWQRGDTFICAVMHEALHNHYTQKSLSHSPGK	–	–	–	–	< 10	–	~2

Other lines, results leading:

EC50 (read off the curve) (canine CD64 (canine)) [nM]	IC50 (read off the curve) (canine PD-1 [1]) [nM]	EC50 (nM), CD4 T cells (canine PBMCs, background corrected mean fluorescence intensity) (canine PD-1 [2]) [nM]	EC50 (nM), CD8 T cells (canine PBMCs, background corrected mean fluorescence intensity) (canine PD-1 [2]) [nM]	Kd (canine PD-1 [3]) [nM]	IC50 (read off the curve) (canine PD-1 [4]) [nM]	EC50 (read off the curve) (canine PD-1 [5]) [nM]	Binder
9	–	–	–	–	–	–	cCD19-4A8-Fc (Fc fusion, part only; not given: CD19 binding part, linker, not shown: another chain or arm of the molecule; small tags and cut ends) Fc: ENGRVPRPPDCPPCPAPEMLGGPSVFIFPPKPKDTLLIARTPEVTCVVVDLDPEDPEVQISWFVDGKQMQTAKTQPREEQFNGTYRVVSVLPIGHQDWLKGKQFTCKVNNKALPSPIERTISKARGQAHQPSVYVLPPSREELSKNTVSLTCLIKDFFPPDIDVEWQSNGQQEPESKYRTTPPQLDEDGSYFLYSKLSVDKSRWQRGDTFICAVMHEALHNHYTQKSLSHSPGK
–	~2	1.7	0.764	8.82	~6	~2	PD1-14-Fc xEML-DANA (Fc fusion, Dimer formation is stated only in embodiment language) QVQLQQSGGGLAQAGGSLRLSCAASGRTVSIYAMGWFRQAPGKEREFVAGIGWNGGTTYYADSVEGRFTISRDHAKNTAYLQMNSLKPEDTAVYYCAAQESAAGTLGDYWGRGTQVTVKPGGGGENGRVPRPPDCPKCPAPGGPSVFIFPPKPKDTLLIARTPEVTCVVVALDPEDPEVQISWFVDGKQMQTAKTQPREEQFAGTYRVVSVLPIGHQDWLKGKQFTCKVNNKALPSPIERTISKARGQAHQPSVYVLPPSREELSKNTVSLTCLIKDFFPPDIDVEWQSNGQQEPESKYRTTPPQLDEDGSYFLYSKLSVDKSRWQRGDTFICAVMHEALHNHYTQKSLSHSPGK
–	–	–	–	3.24	~6	–	czPD1-14v3-Fc xEML-DANA (Fc fusion, Dimer formation is stated only in embodiment language) EVQLVESGGGEVKPGGSLRLSCVASGRTVSIYAMGWFRQAPGKEREFVAGIGWNGGTTYYADAVKGRFTISRDHAKNTVYLQMSSLRAEDTAVYYCAAQESAAGTLGDYWGQGTQVTVKPGGGGENGRVPRPPDCPKCPAPGGPSVFIFPPKPKDTLLIARTPEVTCVVVALDPEDPEVQISWFVDGKQMQTAKTQPREEQFAGTYRVVSVLPIGHQDWLKGKQFTCKVNNKALPSPIERTISKARGQAHQPSVYVLPPSREELSKNTVSLTCLIKDFFPPDIDVEWQSNGQQEPESKYRTTPPQLDEDGSYFLYSKLSVDKSRWQRGDTFICAVMHEALHNHYTQKSLSHSPGK
–	–	–	–	4.15	~6	–	czPD1-14v1-Fc xEML-DANA (Fc fusion) EVQLVESGGGEVKPGGSLRLSCVASGRTVSIYAMGWFRQAPGKEREFVAGIGWSGGTTYYADAVKGRFTISRDNAKNTVYLQMSSLRAEDTAVYYCAAQESAAGTLGDYWGQGTQVTVKPGGGGENGRVPRPPDCPKCPAPGGPSVFIFPPKPKDTLLIARTPEVTCVVVALDPEDPEVQISWFVDGKQMQTAKTQPREEQFAGTYRVVSVLPIGHQDWLKGKQFTCKVNNKALPSPIERTISKARGQAHQPSVYVLPPSREELSKNTVSLTCLIKDFFPPDIDVEWQSNGQQEPESKYRTTPPQLDEDGSYFLYSKLSVDKSRWQRGDTFICAVMHEALHNHYTQKSLSHSPGK
